Test results as given in the supplement of paper PMC7125110.
± gives the standard error. For some assays here: This sample holds only a part of the variants without activity.

B1: glmS ribozyme (parent)
chain: AUAAAAGCGCCAGAACUACAGAAAUGUAGUUGACGAGGAGGAGGUUUAUCGAAUUUUCGGCGGAUGCCUCCAAA

Key:
Conditions in all cases: with glucosamine-6-phosphate
glucosamine-6-phosphate [1] = variants of: B1; assay: kcat; higher = faster cleavage; RNA array
How it was run: (§1)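 Tiles bearing barcoded ribozyme variants, transcribed in situ by E. coli RNA polymerase on sequenced MiSeq chips, were imaged over ~14 h at 37 °C using a hybridised Cy3 probe. Glucosamine-6-phosphate was supplied at 40 μM to 10 mM in HEPES/KCl/Mg(OAc)2 buffer. kobs came from one- or two-exponential decay fits to normalised per-tile medians, and weighted Michaelis–Menten fits then provided kcat and KM.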

glucosamine-6-phosphate [2] = variants of: B1; assay: self-cleavage kobs at 160 uM GlcN6P; higher = faster cleavage; RNA array
How it was run: as §1

glucosamine-6-phosphate [3] = variants of: B1; assay: self-cleavage kobs at 2500 uM GlcN6P; higher = faster cleavage; RNA array
How it was run: as §1

glucosamine-6-phosphate [4] = variants of: B1; assay: self-cleavage kobs at 10000 uM GlcN6P; higher = faster cleavage; RNA array
How it was run: as §1

glucosamine-6-phosphate [5] = variants of: B1; assay: self-cleavage kobs at 40 uM GlcN6P; higher = faster cleavage; RNA array
How it was run: as §1

glucosamine-6-phosphate [6] = variants of: B1; assay: self-cleavage kobs at 640 uM GlcN6P; higher = faster cleavage; RNA array
How it was run: as §1

glucosamine-6-phosphate [7] = variants of: B1; assay: KM; higher = weaker cofactor use; RNA array
How it was run: as §1

| Variant | kcat (glucosamine-6-phosphate [1]) | self-cleavage kobs at 160 uM GlcN6P (glucosamine-6-phosphate [2]) | self-cleavage kobs at 2500 uM GlcN6P (glucosamine-6-phosphate [3]) | self-cleavage kobs at 10000 uM GlcN6P (glucosamine-6-phosphate [4]) | self-cleavage kobs at 40 uM GlcN6P (glucosamine-6-phosphate [5]) | self-cleavage kobs at 640 uM GlcN6P (glucosamine-6-phosphate [6]) | KM (glucosamine-6-phosphate [7]) |
| --- | --- | --- | --- | --- | --- | --- | --- |
| U56G G59U | 2.54e-05 ± 5.7e-06 s⁻¹ | < 1e-05 s⁻¹ | 2.9e-05 ± 1.4e-05 s⁻¹ | 2.16e-05 ± 1e-05 s⁻¹ |  |  |  |
| G59A U69G | 1.93e-05 ± 4.9e-06 s⁻¹ |  |  |  |  |  |  |
| C58A C71G | 3.85e-05 ± 8.3e-06 s⁻¹ |  | 4.63e-05 ± 1.1e-05 s⁻¹ | 2.57e-05 ± 1.2e-05 s⁻¹ | < 1e-05 s⁻¹ | 3.58e-05 ± 1.5e-05 s⁻¹ |  |
| G59U C70A | 1.64e-05 ± 5.5e-06 s⁻¹ |  |  |  |  |  |  |
| C58G G62U C70U | 2.66e-05 ± 1.1e-05 s⁻¹ |  |  |  |  | 4.86e-05 ± 2.1e-05 s⁻¹ |  |
| U65C C71G | 4.3e-05 ± 1.5e-05 s⁻¹ |  | 8.15e-05 ± 1.6e-05 s⁻¹ | 3.44e-05 ± 8.1e-06 s⁻¹ | < 1e-05 s⁻¹ |  |  |
| U57A C61G G62C A64G U65A G66U C67G U69C | 3.85e-05 ± 9.7e-06 s⁻¹ |  | 4.83e-05 ± 2e-05 s⁻¹ |  |  |  |  |
| U56C C68G | < 1e-05 s⁻¹ | < 1e-05 s⁻¹ |  | < 1e-05 s⁻¹ |  |  |  |
| U57G G62U | < 1e-05 s⁻¹ |  | < 1e-05 s⁻¹ |  | < 1e-05 s⁻¹ |  |  |
| G63C C71G | < 1e-05 s⁻¹ | < 1e-05 s⁻¹ |  | < 1e-05 s⁻¹ | < 1e-05 s⁻¹ | < 1e-05 s⁻¹ | 0.222 ± 0.079 mM |
| G62A | < 1e-05 s⁻¹ |  |  | < 1e-05 s⁻¹ | < 1e-05 s⁻¹ |  |  |
| C58G C67A | 4.68e-05 ± 7.6e-06 s⁻¹ |  | 4.7e-05 ± 1.4e-05 s⁻¹ | 3.78e-05 ± 1e-05 s⁻¹ |  | 6.09e-05 ± 1.3e-05 s⁻¹ |  |
| U55G C58U | 0.00011 ± 7.5e-06 s⁻¹ |  | 2.7e-05 ± 8.5e-06 s⁻¹ | 6.17e-05 ± 7.4e-06 s⁻¹ |  |  | 7.88 ± 1.1 mM |
| U65G C71U | 0.00415 ± 0.00046 s⁻¹ | 0.000189 ± 3.4e-05 s⁻¹ | 0.00232 ± 0.00055 s⁻¹ | 0.00316 ± 0.00037 s⁻¹ | 5.93e-05 ± 7e-06 s⁻¹ | 0.000688 ± 0.00013 s⁻¹ | 2.96 ± 0.43 mM |
| U65G C71G | 0.001 ± 0.00022 s⁻¹ | 4.2e-05 ± 1e-05 s⁻¹ | 0.000413 ± 4.9e-05 s⁻¹ | 0.000734 ± 0.00013 s⁻¹ | 2.64e-05 ± 9.6e-06 s⁻¹ | 0.000145 ± 1.5e-05 s⁻¹ | 3.67 ± 1.1 mM |
| G59A C71A | < 1e-05 s⁻¹ |  |  |  | < 1e-05 s⁻¹ |  |  |
| G59A C71G | < 1e-05 s⁻¹ |  |  |  | < 1e-05 s⁻¹ |  |  |
| C58A C61U | < 1e-05 s⁻¹ |  |  |  |  |  |  |
| C58A C61A | 1.11e-05 ± 1.1e-06 s⁻¹ |  |  | < 1e-05 s⁻¹ |  |  |  |
| C58A C61G | 1.62e-05 ± 5.8e-06 s⁻¹ |  |  |  |  |  |  |
| U56A C68G C71U | 4.87e-05 ± 2e-05 s⁻¹ |  | 4e-05 ± 1.6e-05 s⁻¹ |  |  | 7.83e-05 ± 1.6e-05 s⁻¹ |  |
| C61G C71A | 1.34e-05 ± 3.8e-06 s⁻¹ |  |  |  |  |  |  |
